Assay results from publication PMC11302665.

Legend:
[1] = target: L-cysteine desulfurase IscS (E. coli) (UniProt P0A6B7)
[2] = target: L-cysteine desulfurase IscS (E. coli) (UniProt P0A6B7); experiment: native MS; ~8 µM IscS (~4 µM dimeric IscS) titrated with increasing TusA in 250 mM ammonium acetate, pH 8.0; fractional intensities fitted to a sequential binding model (Dynafit)
[3] = target: R220/223/225E triple variant of IscS (E. coli) (UniProt P0A6B7); experiment: native MS; ESI-MS under non-denaturing conditions of IscS alone, 250 mM ammonium acetate, pH 8.0
[4] = target: IscS (Escherichia coli) (UniProt P0A6B7); experiment: native mass spectrometry; details: cited from earlier work

Kd [2] [µM] | Substance | other results
8 | TusA (from UniProt P0A890 1-81) (natural protein) | L-cysteine desulfurase activity of IscS (methylene blue assay) after addition of TusA [1]: 3 fold
– | R220/223/225E triple variant of IscS (from UniProt P0A6B7 1-404) (enzyme) | stoichiometry N [3]: 2
8 | TusA C19S variant (from UniProt P0A890 1-81) (natural protein) | –
– | IscU (from UniProt P0ACD4) | Kd [4]: 3 µM
8 | TusA C56A variant (from UniProt P0A890 1-81) (natural protein) | –
